Laboratory results published in paper PMC6294630.

Biological target: Wild-type placental protein 13/galectin-13 (Gal-13) (human) (UniProt Q9UHV8)

hemagglutination of chicken erythrocytes, minimum agglutination concentration (MAC): 25 µg/mL
B1: Wild-type placental protein 13/galectin-13 (Gal-13) (natural protein)
chain: MSSLPVPYKLPVSLSVGSCVIIKGTPIHSFINDPQLQVDFYTDMDEDSDIAFRFRVHFGNHVVMNRREFGIWMLEETTDYVPFEDGKQFELCIYVHYNEYEIKVNGIRIYGFVHRIPPSFVKMVQVSRDISLTSVCVCN
